Consider two substances from article PMC11385924.

Data set [1] concerns KmAgo (Km-WT) (Kurthia massiliensis). The data set is described as follows: fluorescence polarization. The conditions noted are these: FP: 5 nM FAM-DNA, 0-1500 nM protein, 15 mM Tris-HCl pH 7.4, 200 mM NaCl, 5 mM MnCl2, 37 C, 1 h, EMSA: 1 uM FAM-guide, 2 uM protein.
For data set [2], the system named is Km-AP23 (artificial (CPDiffusion design on KmAgo backbone)). The data set is described as follows: fluorescence polarization. Conditions: FP: 5 nM FAM-DNA, 0-1500 nM protein, 15 mM Tris-HCl pH 7.4, 200 mM NaCl, 5 mM MnCl2, 37 C, 1 h, EMSA: 1 uM FAM-guide, 2 uM protein. In general terms: In fluorescence polarisation assays a small probe gives low polarisation when free and higher when bound to something large.

Broadly, the Kd is a measure of binding affinity in units of concentration. A high value points to lower affinity. As for tDNA (target DNA), the values for the dissociation constant (Kd) in data set [1] and in data set [2] were 70 nM and 29.5 nM, respectively.

Regarding gDNA (guide DNA), the Kd in data set [1] turned out to be 65.9 nM; in data set [2], 17 nM.
